This is an account of results in patent US20120231005A1 (Merck Sharp & Dohme, published 2012).

Where a chain is given by its changes, count along the chain named.

The labels stand for the following.
B1: AX188 IgG2 (antibody, V domains shown)
VH: EVQLLESGGGLVQPGGSLRLSCKASGYTFSSYWMHWVRQAPGKGLEWIGRIDPYNGGTKYNEKFKGKATISRDNSKNTLYLQMNSLRAEDTAVYYCARYGYYLGSYAMDYWGQGTLVTVSS
VL: DIQMTQSPSSLSASVGDRVTITCRASQSVSRYLAWYQQKPGKAPKLLIYAASSLQSGVPSRFSGSGSGTDFTLTISSLQPEDFATYYCEAYDYSSGPWVFGGGTKVEIKR
notes: IgG2
B2: AX9 Fab (Fab, V domains shown)
VH: B1 VH
VL: B1 VL with S28D, R31K, E89Q, A90V, Y93S, S95P, G96N, P97A, W98Y
B3: AX1 Fab (Fab, V domains shown)
VH: EVQLLESGGGLVQPGGSLRLSCKASGFTFTSYYMHWVRQAPGKGLEWIGRINPDSGSTKYNEKFKGRATISRDNSKNTLYLQMNSLRAEDTAVYYCARGGRLSWDFDVWGQGTLVTVSS
VL: B1 VL with S28D, V29I, E89A, S95L, P97G, W98Y, G102D
notes: Soluble Fab from E. coli TG1 periplasm; Tags encoded by the display vector are not described for the protein
B4: AX189 Fab (Fab, V domains shown)
VH: B1 VH
VL: B1 VL with S28D, A34T, E89Q, S95L, G96S, P97G, W98Y
notes: The heavy chain is the Fd chain
B5: AX422 IgG2 (antibody, V domains shown)
VH: B1 VH with N55S
VL: B1 VL with S28D, A34T, E89Q, S95L, G96S, P97G, W98Y
notes: also called AX422 (55N to S)
B6: AX424 IgG2 (antibody, V domains shown)
VH: B1 VH with N55T
VL: B1 VL with S28D, A34T, E89Q, S95L, G96S, P97G, W98Y
notes: also called AX424 (55N to T)
B7: AX191 Fab (Fab, V domains shown)
VH: B1 VH
VL: DIQMTQSPSSLSASVGDRVTITCRASQDISKYLAWYQQKPGKAPKLLIYAASSLQSGVPSRFSGSGSGTDFTLTISSLQPEDFATYYCQAYDYSSSAYVFGGGTKVEIK
B8: AX422 Fab (Fab, V domains shown)
VH: B1 VH with N55S
VL: B7 VL with I29V, K31R, A34T, S95L, A97G
notes: also called AX189_VH 55N to S
B9: AX197 Fab (Fab, V domains shown)
VH: B1 VH
VL: B7 VL with D28A, K31R, S95L, S96G, A97H
B10: AX424 Fab (Fab, V domains shown)
VH: B1 VH with N55T
VL: B7 VL with I29V, K31R, A34T, S95L, A97G
notes: also called AX189_VH 55N to T
B11: AX200 Fab (Fab, V domains shown)
VH: B1 VH
VL: B7 VL with I29V, Q89E, S95L, A97H
B12: AX194 Fab (Fab, V domains shown)
VH: B1 VH
VL: B7 VL with I21T, D28A, I29V, K31R, A34T, S95L, S96G
B13: AX193 Fab (Fab, V domains shown)
VH: B1 VH
VL: B7 VL with D28A, A34N, Q89E, A90S, S95L, S96G, A97R
B14: AX198 Fab (Fab, V domains shown)
VH: B1 VH
VL: B7 VL with D28A, I29V, K31S, A34N, Q89E, S95L, S96G, A97G, Y98W
B15: AX196 Fab (Fab, V domains shown)
VH: B1 VH
VL: B7 VL with M4I, I29V, K31R, Q89E, A90S, S95L, A97H
B16: AX199 Fab (Fab, V domains shown)
VH: B1 VH
VL: B7 VL with D28S, I29V, K31N, A34H, S95L, S96G, A97P
B17: AX421 Fab (Fab, V domains shown)
VH: B1 VH with G56E
VL: B7 VL with I29V, K31R, A34T, S95L, A97G
notes: also called AX189_VH 56G to E
B18: AX423 Fab (Fab, V domains shown)
VH: B1 VH with G56T
VL: B7 VL with I29V, K31R, A34T, S95L, A97G
notes: also called AX189_VH 56G to T
B19: AX195 Fab (Fab, V domains shown)
VH: B1 VH
VL: B7 VL with D28A, I29V, S95L, S96G, A97D
B20: AX425 Fab (Fab, V domains shown)
VH: B1 VH with N55D
VL: B7 VL with I29V, K31R, A34T, S95L, A97G
notes: also called AX189_VH 55N to D
B21: AX114 IgG2 (antibody, V domains shown)
VH: EVQLLESGGGLVQPGGSLRLSCKASGYTFSSYGMYWVRQAPGKGLEWIGWIDPGSGGTKYNEKFKGKATISRDNSKNTLYLQMNSLRAEDTAVYYCARERYGYYFDYWGQGTLVTVSS
VL: EIVLTQSPATLSLSPGERATITCRASQYVGTYLNWYQQKPGQAPRLLIYDASNRATGIPARFSGSGSGTDFTLTISSLEPEDFAVYYCQVWDSSPPVAFGGGTKVEIK
B22: AX132 IgG2 (antibody, from another filing, V domains shown)
VH: B21 VH
VL: EIVLTQSPATLSLSPGERATITCRASQYVGSYLNWYQQKPGQAPRLLIYDASNRATGIPARFSGSGSGTDFTLTISSLEPEDFAVYYCQVWDSSPPVVFGGGTKVEIKR

T1 sequence (Q8NBP7 31-692 limits assumed): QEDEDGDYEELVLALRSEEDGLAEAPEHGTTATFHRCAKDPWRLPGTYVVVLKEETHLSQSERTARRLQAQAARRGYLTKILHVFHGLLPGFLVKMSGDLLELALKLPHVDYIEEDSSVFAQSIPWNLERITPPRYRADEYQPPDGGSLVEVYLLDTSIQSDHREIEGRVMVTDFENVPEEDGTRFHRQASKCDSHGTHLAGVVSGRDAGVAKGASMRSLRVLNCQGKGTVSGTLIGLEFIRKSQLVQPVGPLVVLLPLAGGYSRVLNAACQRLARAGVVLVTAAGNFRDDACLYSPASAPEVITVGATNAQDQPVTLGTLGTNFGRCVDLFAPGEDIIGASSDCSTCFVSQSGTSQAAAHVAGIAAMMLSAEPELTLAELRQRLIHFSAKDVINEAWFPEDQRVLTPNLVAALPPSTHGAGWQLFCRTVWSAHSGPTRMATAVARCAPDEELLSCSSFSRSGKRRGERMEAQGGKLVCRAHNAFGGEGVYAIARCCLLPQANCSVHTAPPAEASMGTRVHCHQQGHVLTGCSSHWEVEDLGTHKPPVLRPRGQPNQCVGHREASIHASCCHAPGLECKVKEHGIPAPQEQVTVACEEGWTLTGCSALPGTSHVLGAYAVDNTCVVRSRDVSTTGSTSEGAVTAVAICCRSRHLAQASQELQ

The first assay has as its target T1, human PCSK9 (human, UniProt Q8NBP7 31-692, limits assumed). Kind of assay: cell-based or functional assay.
On to B1, for which the “IgG IC50 (nM), inhibition of PCSK9 on LDL uptake (Exopolar assay)” value amounted to 24.8 nM.
Consider B2, for which the “Fab IC50 (nM), inhibition of PCSK9 on LDL uptake (Exopolar assay)” value (“Fab IC50 (nM), inhibition of PCSK9” for short) worked out at 287 nM.
B3: the “Fab IC50 (nM), inhibition of PCSK9” value came to 146 nM.
Same read-out and setting: to B4 belongs 31 nM.
For the molecule B5, the “IgG IC50 (nM), inhibition of PCSK9 on LDL uptake (Exopolar assay)” value amounted to 5 nM.
The same measure, in the same setting: to B6 belongs 6 nM.
With B7, the “Fab IC50 (nM), inhibition of PCSK9” value was determined as 13 nM.

The target in the next assay is rhesus PCSK9 (rhesus). The assay can be described thus: cell-based or functional assay.
On to B1, for which the IgG IC50 (nM), inhibition of PCSK9 on LDL uptake (Exopolar assay) came to 18.7 nM.

A further assay has as its target T1, human PCSK9. Kind of assay: SPR (Biacore); Fab captured on anti-Fab IgG, PCSK9 injected; 1:1 Langmuir fit. On the procedure: First, goat anti-Fab IgGs were immobilized onto CM5 chip by amine coupling as described above. The anti-Fab IgGs were diluted to 200 μg/ml in pH 5/10 mM Acetate solution, and injected onto the NHS/EDC activated surface to achieve an immobilization level of ˜10,000 RU, followed with surface inactivation by injection of Ethanolamine. […] The sensor chip surface was regenerated by 30 second injection of 100 mM phosphoric acid. The binding sensorgrams were fitted with 1:1 Langmuir binding model to determine the binding affinity.
(In SPR one partner is held on a chip, and binding of the other changes the refractive index at the surface.)
The term Kd denotes the concentration at which binding is half-saturated. Read a high Kd as a looser complex. As to B8, binding was put at a Kd of 4.1 nM.
Same read-out and setting: the figure for B2 is 23.9 nM; for B3 it is 6 nM; for B9 it is 5.6 nM.
On the same count and under the same terms, to B10 belongs 4.2 nM.
On the same count and under the same terms, the figure for B11 is 9.6 nM; for B12 it is 6.1 nM; for B4 it is 6.3 nM.
Molecule B13 came in with a Kd of 7 nM.
Still for that read-out and setting: the figure for B14 is 4.3 nM; for B15 it is 18.3 nM; for B16 it is 26.2 nM.
For the molecule B17, the equilibrium dissociation constant (Kd) was 6.7 nM.
Still for that read-out and setting: to B18 belongs 32.8 nM.
Same read-out and setting: the figure for B19 is 9.9 nM; for B7 it is 5.2 nM.
On the same count and under the same terms, the figure for B20 is 17.6 nM.

Another assay concerns the target T1, human PCSK9. Kind of assay: SPR (Biacore); IgG captured on anti-human IgG, PCSK9 injected. As for the experimental part: (§1) The affinities of those IgG molecules were also measured by Biacore assay. Briefly, anti-human IgG monoclonal antibody form Human Antibody Capture Kit provided by Biacore was immobilized on CM5 chips at a level of 8000 to 10000 RU. […] After each round injection, the sensor chip surface was regenerated by 30 second injection of 3M Magnesium Chloride.
As to B1, binding was characterised by a dissociation constant (Kd) of 0.873 nM.
Same read-out and setting: to B5 belongs 2.12 nM; to B6, 2.16 nM.

For another assay, the target named is rhesus PCSK9 (rhesus). The assay can be described thus: affinity table, IgG2 (Biacore).
B21 registered a Kd of 11.6 nM.
The same measure, in the same setting: the figure for B22 is 2.59 nM.

For the next assay, the target named is T1, human PCSK9. Kind of assay: affinity table, IgG2 (Biacore). On the procedure: as §1
On to B21, for which the dissociation constant Kd was 24 nM.

In another assay the target is T2, mouse PCSK9 (mouse, UniProt Q80W65 35-694, limits assumed).
T2 construct: also called Mouse PCSK9 9
T2 sequence (Q80W65 35-694 limits assumed): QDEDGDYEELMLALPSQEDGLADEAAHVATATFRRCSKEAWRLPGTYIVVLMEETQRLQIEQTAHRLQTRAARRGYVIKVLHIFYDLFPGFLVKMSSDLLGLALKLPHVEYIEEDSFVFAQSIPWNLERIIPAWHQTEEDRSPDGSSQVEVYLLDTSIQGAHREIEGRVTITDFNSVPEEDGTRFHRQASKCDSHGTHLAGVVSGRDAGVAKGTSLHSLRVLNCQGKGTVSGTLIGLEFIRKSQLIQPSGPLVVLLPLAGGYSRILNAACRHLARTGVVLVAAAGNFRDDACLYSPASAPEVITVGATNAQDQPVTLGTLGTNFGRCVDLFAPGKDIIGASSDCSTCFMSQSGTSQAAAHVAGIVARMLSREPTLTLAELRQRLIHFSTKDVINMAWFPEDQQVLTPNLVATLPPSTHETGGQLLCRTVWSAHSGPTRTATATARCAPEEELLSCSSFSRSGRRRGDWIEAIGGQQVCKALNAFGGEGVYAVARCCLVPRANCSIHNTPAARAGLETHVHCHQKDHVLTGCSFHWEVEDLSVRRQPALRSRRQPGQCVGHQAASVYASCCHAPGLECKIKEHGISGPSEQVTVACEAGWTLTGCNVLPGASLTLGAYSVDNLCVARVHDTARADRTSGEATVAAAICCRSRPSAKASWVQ
Kind of assay: affinity table, IgG2 (Biacore). On the procedure:
as §1
In the case of B21, the Kd was 11.2 nM.

For the next assay, the target named is rhesus PCSK9 (rhesus). The assay can be described thus: SPR (Biacore); IgG captured on anti-human IgG, PCSK9 injected.
The molecule B1 registered a dissociation constant (Kd) of 0.454 nM.
Still for that read-out and setting: to B5 belongs 1.96 nM; to B6, 2.36 nM.
